Experimental data from US6358738 (Harvard, dated 2002).

Legend:
[1] = target: T1, Plk 323-499 (two-hybrid bait, wild-type polo box) (murine (mammalian Plk), UniProt Q07832 323-499); assay: yeast two-hybrid screen, mouse embryo cDNA library
T1 construct: Bait fusion expressed in yeast
Description: Using the terminology of the two-hybrid system (Vojtek et al., 1993), vectors were engineered to have Plk carboxy terminal constructs as bait (see FIG. 11) and a mouse embryo 9.5/10.5-day cDNA library as prey. (A different strategy was used to identify TCTP/p23, i.e., full length Plk and a cDNA library from HeLa cells with inserts of 1–2 kb in the Examples, infra).

[2] = target: T1, Plk 323-499 (two-hybrid bait, wild-type …); assay: yeast two-hybrid
HA-Snk = HA-Snk (UniProt P53351 1-682); assay: interaction of recombinant proteins produced in insect cells with baculovirus (GST-fusion)
Description: Full-length TCTP/p23 (SEQ ID No:27) cDNA was isolated and cloned into a pGEX vector to produce a GST-fusion protein.

[3] = target: T2, GST-fusion protein of full-length TCTP/p23
T2 chain: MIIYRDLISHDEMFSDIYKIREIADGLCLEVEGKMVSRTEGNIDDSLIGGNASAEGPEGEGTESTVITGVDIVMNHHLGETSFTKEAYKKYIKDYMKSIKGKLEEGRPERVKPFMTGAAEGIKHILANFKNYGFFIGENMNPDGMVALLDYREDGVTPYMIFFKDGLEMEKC

HA-Snk, sequence (P53351 whole entry, the tested form may be a part): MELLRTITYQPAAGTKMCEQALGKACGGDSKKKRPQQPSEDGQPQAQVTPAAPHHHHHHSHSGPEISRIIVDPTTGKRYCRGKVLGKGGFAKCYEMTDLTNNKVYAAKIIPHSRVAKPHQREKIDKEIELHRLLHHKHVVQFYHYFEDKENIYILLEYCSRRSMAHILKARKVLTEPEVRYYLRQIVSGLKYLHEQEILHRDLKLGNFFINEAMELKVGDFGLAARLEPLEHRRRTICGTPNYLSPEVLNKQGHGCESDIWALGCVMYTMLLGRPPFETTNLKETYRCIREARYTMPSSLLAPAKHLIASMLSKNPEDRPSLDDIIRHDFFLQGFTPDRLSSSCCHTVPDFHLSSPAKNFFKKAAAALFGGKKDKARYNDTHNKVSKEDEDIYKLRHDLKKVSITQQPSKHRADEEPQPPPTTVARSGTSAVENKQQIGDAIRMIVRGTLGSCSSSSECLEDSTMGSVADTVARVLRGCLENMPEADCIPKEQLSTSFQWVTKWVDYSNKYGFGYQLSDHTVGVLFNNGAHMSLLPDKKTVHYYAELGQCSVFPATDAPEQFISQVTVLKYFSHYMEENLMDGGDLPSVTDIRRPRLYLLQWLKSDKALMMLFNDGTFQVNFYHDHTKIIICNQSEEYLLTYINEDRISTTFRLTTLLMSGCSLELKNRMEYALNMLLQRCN

B1: Plk 500-603 (two-hybrid prey clone) (other, not shown: large carriers)
chain: REGDELARLPYLRTWFRTRSAIILHLSNGTVQINFFQDHTKLILCPLMAAVTYINEKRDFQTYRLSLLEEYGCCKELASRLRYARTMVDKLLSSRSASNRLKAS
binding result [1]: binds

B2: chaperonin-containing-TCP (CCT) epsilon subunit, amino acid residues 13-139, two-hybrid prey clone (other, not shown: large carriers)
chain: GRPFLIIKDQDRKSRLMGLEALKSHIMAAKAVANTMRTSLGPNGLDKMMVDKDGDVTITNDGATILSMMDVDHQIAKLMVELSKSQDDEIGDGTTGVVVLAGALLEEAEQLLDRGIHPIRIADGYEQ
notes: also called CCT-ε
binding result [2]: binds

B3: GST-fusion protein of full-length TCTP/p23 (other)
chain: MIIYRDLISHDEMFSDIYKIREIADGLCLEVEGKMVSRTEGNIDDSLIGGNASAEGPEGEGTESTVITGVDIVMNHHLGETSFTKEAYKKYIKDYMKSIKGKLEEGRPERVKPFMTGAAEGIKHILANFKNYGFFIGENMNPDGMVALLDYREDGVTPYMIFFKDGLEMEKC
notes: Full-length TCTP/p23 cDNA cloned into a pGEX vector to produce a GST-fusion protein; also called GST-TCTP/p23; not shown: glutathione-S-transferase (GST) from pGEX vector
binding result (HA-Snk): no binding

B4: HA-Plk (protein)
chain: MNAAAKAGKLARAPADLGKGGVPGDAVPGAPVAAPLAKEIPEVLVDPRSRRQYVRGRFLGKGGFAKCFEISDADTKEVFAGKIVPKSLLLKPHQKEKMSMEISIHRSLAHQHVVGFHDFFEDSDFVFVVLELCRRRSLLELHKRRKALTEPEARYYLRQIVLGCQYLHRNQVIHRDLKLGNLFLNEDLEVKIGDFGLATKVEYEGERKKTLCGTPNYIAPEVLSKKGHSFEVDVWSIGCIMYTLLVGKPPFETSCLKETYLRIKKNEYSIPKHINPVAASLIQKMLQTDPTARPTIHELLNDEFFTSGYIPARLPITCLTIPPRFSIAPSSLDPSSRKPLKVLNKGVENPLPDRPREKEEPVVRETNEAIECHLSDLLQQLTSVNASKPSERGLVRQEEAEDPACIPIFWVSKWVDYSDKYGLGYQLCDNSVGVLFNDSTRLILYNDGDSLQYIERDGTESYLTVSSHPNSLMKKITLLNYFRNYMSEHLLKAGANITPREGDELARLPYLRTWFRTRSAIILHLSNGTVQINFFQDHTKLILCPLMAAVTYINEKRDFQTYRLSLLEEYGCCKELASRLRYARTMVDKLLSSRSASNRLKAS
phosphorylation of TCTP/p23 by Plk kinase activity [3]: phosphorylated by Plk on serine residues at positions 46 and 64
